Reference: patent US20230365662A1
Several values for one entry are separate records, joined by “and”; a condition that tells them apart may be missing. Equal values may be shown once.

Legend:
[1] = target: HRgpA-6H (Porphyromonas gingivalis) (UniProt P28784); assay: ELISA on coated HRgpA-6H (coating concentration not stated); secondary Mouse Anti-Human IgG, F(ab')2
[2] = target: HRgpA-6H (Porphyromonas gingivalis) (UniProt P28784); assay: ELISA on coated HRgpA-6H (coating concentration not stated); secondary Goat Anti-Human IgG (H+L)
[3] = target: HRgpA-6H (Porphyromonas gingivalis) (UniProt P28784); assay: ELISA on coated HRgpA-6H (coating concentration not stated); secondary Goat Anti-Human IgG, F(ab')2
[4] = target: HRgpA-6H (Porphyromonas gingivalis) (UniProt P28784); assay: ELISA on coated HRgpA-6H (coating concentration not stated); secondary Anti-BSA (HRP)
[5] = target: HRgpA-6H (Porphyromonas gingivalis) (UniProt P28784); assay: ELISA, HRgpA-6H coated 0.0625 ug/ml; mouse Fab FASEBA supernatant; Goat Anti-MOUSE IgG (Fab specific) [HRP]
[6] = target: HRgpA-6H (Porphyromonas gingivalis) (UniProt P28784); assay: ELISA, HRgpA-6H coated 1 ug/ml; mouse Fab FASEBA supernatant; Goat Anti-MOUSE IgG (Fab specific) [HRP]
[7] = target: HRgpA-6H (Porphyromonas gingivalis) (UniProt P28784); assay: ELISA, HRgpA-6H coated 2 ug/ml; mouse Fab FASEBA supernatant; Goat Anti-MOUSE IgG (Fab specific) [HRP]
[8] = target: HRgpA-6H (Porphyromonas gingivalis) (UniProt P28784); assay: ELISA, HRgpA-6H coated 0.25 ug/ml; mouse Fab FASEBA supernatant; Goat Anti-MOUSE IgG (Fab specific) [HRP]
[9] = target: HRgpA-6H (Porphyromonas gingivalis) (UniProt P28784); assay: ELISA, HRgpA-6H coated 0.125 ug/ml; mouse Fab FASEBA supernatant; Goat Anti-MOUSE IgG (Fab specific) [HRP]
[10] = target: HRgpA-6H (Porphyromonas gingivalis) (UniProt P28784); assay: ELISA, HRgpA-6H coated 0.5 ug/ml; mouse Fab FASEBA supernatant; Goat Anti-MOUSE IgG (Fab specific) [HRP]
[11] = target: HRgpA-6H (Porphyromonas gingivalis) (UniProt P28784); assay: ELISA, Fab FASEBA supernatant on coated HRgpA-6H (0.0625 ug/ml)

UniProt P28784, sequence (P28784 228-991 limits assumed): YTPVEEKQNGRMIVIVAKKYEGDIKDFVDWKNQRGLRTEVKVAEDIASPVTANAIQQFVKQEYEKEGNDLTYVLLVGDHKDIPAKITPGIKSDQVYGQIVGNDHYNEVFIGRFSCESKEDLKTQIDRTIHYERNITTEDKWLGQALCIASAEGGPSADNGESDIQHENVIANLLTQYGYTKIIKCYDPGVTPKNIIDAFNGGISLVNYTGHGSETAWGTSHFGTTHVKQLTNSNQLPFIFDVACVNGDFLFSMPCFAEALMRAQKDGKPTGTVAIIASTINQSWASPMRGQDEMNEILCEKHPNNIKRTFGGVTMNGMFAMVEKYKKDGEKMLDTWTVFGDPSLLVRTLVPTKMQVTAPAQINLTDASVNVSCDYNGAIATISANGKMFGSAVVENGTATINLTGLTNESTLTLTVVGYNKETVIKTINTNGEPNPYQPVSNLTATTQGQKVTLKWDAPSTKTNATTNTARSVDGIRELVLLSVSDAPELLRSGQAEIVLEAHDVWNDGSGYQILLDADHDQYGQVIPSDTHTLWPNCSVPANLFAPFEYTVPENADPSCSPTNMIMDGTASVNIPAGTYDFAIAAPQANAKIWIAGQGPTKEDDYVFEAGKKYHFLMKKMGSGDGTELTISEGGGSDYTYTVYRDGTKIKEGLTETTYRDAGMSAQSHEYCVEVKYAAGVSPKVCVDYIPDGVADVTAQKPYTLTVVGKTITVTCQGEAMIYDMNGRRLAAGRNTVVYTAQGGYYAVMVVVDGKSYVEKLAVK

With “non-related FASEBA supernatant (NC) (Fab)” the OD450 [1] was 0.552 and 0.288, the OD450 [2] was 1.15 and 0.736 and the OD450 [3] was 0.672. For the same molecule, the OD450 [4] was 1.09.

B1: parental mouse Fab FASEBA sample (Fab, V domains shown)
VH: EVQLKQSGPGLVAPSQSLSITCTVSGFSLSIYSVHWVRQPPGKGLEWLGMIWGGGSSDYNSALKSRLSISKDNSKSQVFLKMNSLQTDDTAMYYCARNGNFYAMDYWGQGTSVTVSS
VL: QIVLTQSPAIMSASLGERVTMTCTASSSVSSSFLHWYQQKPGSSPQLWIYSTSNLASGVPARFSGSGSGTSYSLTISSMEAEDAATYYCHQYHHSPYIYTFGGGTKLEIKR
In the case of B1, the OD450 [5] is reported as 0.755 and 0.687, the OD450 [6] is reported as 1.94 and 2.02 and the OD450 [7] is reported as 2.04 and 1.98. For the same molecule, the OD450 [8] was 1.58 and 1.51, the OD450 [9] was 1.17 and 1.13 and the OD450 [10] was 1.76 and 1.82.

B2: KB001 parental mouse Fab VH variant A103I (Fab, V domains shown)
VH: EVQLKQSGPGLVAPSQSLSITCTVSGFSLSIYSVHWVRQPPGKGLEWLGMIWGGGSSDYNSALKSRLSISKDNSKSQVFLKMNSLQTDDTAMYYCARNGNFYIMDYWGQGTSVTVSS
VL: QIVLTQSPAIMSASLGERVTMTCTASSSVSSSFLHWYQQKPGSSPQLWIYSTSNLASGVPARFSGSGSGTSYSLTISSMEAEDAATYYCHQYHHSPYIYTFGGGTKLEIK
For B2, the OD450nm [11] was 0.695 and 0.693 and the Ratio OD(Variant)/OD(WT) [11] was 0.806 and 0.804.

B3: KB001 parental mouse Fab VH variant Y106I (Fab, V domains shown)
VH: EVQLKQSGPGLVAPSQSLSITCTVSGFSLSIYSVHWVRQPPGKGLEWLGMIWGGGSSDYNSALKSRLSISKDNSKSQVFLKMNSLQTDDTAMYYCARNGNFYAMDIWGQGTSVTVSS
VL: QIVLTQSPAIMSASLGERVTMTCTASSSVSSSFLHWYQQKPGSSPQLWIYSTSNLASGVPARFSGSGSGTSYSLTISSMEAEDAATYYCHQYHHSPYIYTFGGGTKLEIK
In the case of B3, the OD450nm [11] is reported as 0.73 and 0.728 and 0.764 and the Ratio OD(Variant)/OD(WT) [11] is reported as 0.949 and 0.947 and 0.993.

B4: KB001 parental mouse Fab VH variant A103C (Fab, V domains shown)
VH: EVQLKQSGPGLVAPSQSLSITCTVSGFSLSIYSVHWVRQPPGKGLEWLGMIWGGGSSDYNSALKSRLSISKDNSKSQVFLKMNSLQTDDTAMYYCARNGNFYCMDYWGQGTSVTVSS
VL: QIVLTQSPAIMSASLGERVTMTCTASSSVSSSFLHWYQQKPGSSPQLWIYSTSNLASGVPARFSGSGSGTSYSLTISSMEAEDAATYYCHQYHHSPYIYTFGGGTKLEIK
Work on B4 yielded an OD450nm [11] of 0.77 and a Ratio OD(Variant)/OD(WT) [11] of 0.893.

B5: KB001 parental mouse Fab VH variant Y106H (Fab, V domains shown)
VH: EVQLKQSGPGLVAPSQSLSITCTVSGFSLSIYSVHWVRQPPGKGLEWLGMIWGGGSSDYNSALKSRLSISKDNSKSQVFLKMNSLQTDDTAMYYCARNGNFYAMDHWGQGTSVTVSS
VL: QIVLTQSPAIMSASLGERVTMTCTASSSVSSSFLHWYQQKPGSSPQLWIYSTSNLASGVPARFSGSGSGTSYSLTISSMEAEDAATYYCHQYHHSPYIYTFGGGTKLEIK
B5 showed an OD450nm [11] of 0.722 and a Ratio OD(Variant)/OD(WT) [11] of 0.939.

B6: KB001 parental mouse Fab VH variant M104L (Fab, V domains shown)
VH: EVQLKQSGPGLVAPSQSLSITCTVSGFSLSIYSVHWVRQPPGKGLEWLGMIWGGGSSDYNSALKSRLSISKDNSKSQVFLKMNSLQTDDTAMYYCARNGNFYALDYWGQGTSVTVSS
VL: QIVLTQSPAIMSASLGERVTMTCTASSSVSSSFLHWYQQKPGSSPQLWIYSTSNLASGVPARFSGSGSGTSYSLTISSMEAEDAATYYCHQYHHSPYIYTFGGGTKLEIK
With B6 the OD450nm [11] was 0.786 and the Ratio OD(Variant)/OD(WT) [11] was 0.904.

B7: KB001 parental mouse Fab (WT) (Fab, V domains shown)
VH: EVQLKQSGPGLVAPSQSLSITCTVSGFSLSIYSVHWVRQPPGKGLEWLGMIWGGGSSDYNSALKSRLSISKDNSKSQVFLKMNSLQTDDTAMYYCARNGNFYAMDYWGQGTSVTVSS
VL: QIVLTQSPAIMSASLGERVTMTCTASSSVSSSFLHWYQQKPGSSPQLWIYSTSNLASGVPARFSGSGSGTSYSLTISSMEAEDAATYYCHQYHHSPYIYTFGGGTKLEIK
With B7 the OD450nm [11] was 0.831 and the Ratio OD(Variant)/OD(WT) [11] was 0.956.

B8: KB001 parental mouse Fab VH variant Y106W (Fab, V domains shown)
VH: EVQLKQSGPGLVAPSQSLSITCTVSGFSLSIYSVHWVRQPPGKGLEWLGMIWGGGSSDYNSALKSRLSISKDNSKSQVFLKMNSLQTDDTAMYYCARNGNFYAMDWWGQGTSVTVSS
VL: QIVLTQSPAIMSASLGERVTMTCTASSSVSSSFLHWYQQKPGSSPQLWIYSTSNLASGVPARFSGSGSGTSYSLTISSMEAEDAATYYCHQYHHSPYIYTFGGGTKLEIK
With B8 the OD450nm [11] was 0.733 and 0.748 and the Ratio OD(Variant)/OD(WT) [11] was 0.953 and 0.973.

B9: KB001 parental mouse Fab VH variant A103M (Fab, V domains shown)
VH: EVQLKQSGPGLVAPSQSLSITCTVSGFSLSIYSVHWVRQPPGKGLEWLGMIWGGGSSDYNSALKSRLSISKDNSKSQVFLKMNSLQTDDTAMYYCARNGNFYMMDYWGQGTSVTVSS
VL: QIVLTQSPAIMSASLGERVTMTCTASSSVSSSFLHWYQQKPGSSPQLWIYSTSNLASGVPARFSGSGSGTSYSLTISSMEAEDAATYYCHQYHHSPYIYTFGGGTKLEIK
B9 showed an OD450nm [11] of 0.811 and a Ratio OD(Variant)/OD(WT) [11] of 0.941.

B10: KB001 parental mouse Fab VH variant Y106Q (Fab, V domains shown)
VH: EVQLKQSGPGLVAPSQSLSITCTVSGFSLSIYSVHWVRQPPGKGLEWLGMIWGGGSSDYNSALKSRLSISKDNSKSQVFLKMNSLQTDDTAMYYCARNGNFYAMDQWGQGTSVTVSS
VL: QIVLTQSPAIMSASLGERVTMTCTASSSVSSSFLHWYQQKPGSSPQLWIYSTSNLASGVPARFSGSGSGTSYSLTISSMEAEDAATYYCHQYHHSPYIYTFGGGTKLEIK
B10 gave an OD450nm [11] of 0.768 and a Ratio OD(Variant)/OD(WT) [11] of 0.999.

B11: KB001 parental mouse Fab VH variant A103L (Fab, V domains shown)
VH: EVQLKQSGPGLVAPSQSLSITCTVSGFSLSIYSVHWVRQPPGKGLEWLGMIWGGGSSDYNSALKSRLSISKDNSKSQVFLKMNSLQTDDTAMYYCARNGNFYLMDYWGQGTSVTVSS
VL: QIVLTQSPAIMSASLGERVTMTCTASSSVSSSFLHWYQQKPGSSPQLWIYSTSNLASGVPARFSGSGSGTSYSLTISSMEAEDAATYYCHQYHHSPYIYTFGGGTKLEIK
Molecule B11 has an OD450nm [11] of 0.783 and a Ratio OD(Variant)/OD(WT) [11] of 0.908.

B12: KB001 parental mouse Fab VH variant A103K (Fab, V domains shown)
VH: EVQLKQSGPGLVAPSQSLSITCTVSGFSLSIYSVHWVRQPPGKGLEWLGMIWGGGSSDYNSALKSRLSISKDNSKSQVFLKMNSLQTDDTAMYYCARNGNFYKMDYWGQGTSVTVSS
VL: QIVLTQSPAIMSASLGERVTMTCTASSSVSSSFLHWYQQKPGSSPQLWIYSTSNLASGVPARFSGSGSGTSYSLTISSMEAEDAATYYCHQYHHSPYIYTFGGGTKLEIK
In the case of B12, the OD450nm [11] is reported as 0.723 and the Ratio OD(Variant)/OD(WT) [11] is reported as 0.839.

B13: KB001 parental mouse Fab VH variant M104V (Fab, V domains shown)
VH: EVQLKQSGPGLVAPSQSLSITCTVSGFSLSIYSVHWVRQPPGKGLEWLGMIWGGGSSDYNSALKSRLSISKDNSKSQVFLKMNSLQTDDTAMYYCARNGNFYAVDYWGQGTSVTVSS
VL: QIVLTQSPAIMSASLGERVTMTCTASSSVSSSFLHWYQQKPGSSPQLWIYSTSNLASGVPARFSGSGSGTSYSLTISSMEAEDAATYYCHQYHHSPYIYTFGGGTKLEIK
For B13, the OD450nm [11] was 0.654 and the Ratio OD(Variant)/OD(WT) [11] was 0.85.

B14: KB001 parental mouse Fab VH variant Y106K (Fab, V domains shown)
VH: EVQLKQSGPGLVAPSQSLSITCTVSGFSLSIYSVHWVRQPPGKGLEWLGMIWGGGSSDYNSALKSRLSISKDNSKSQVFLKMNSLQTDDTAMYYCARNGNFYAMDKWGQGTSVTVSS
VL: QIVLTQSPAIMSASLGERVTMTCTASSSVSSSFLHWYQQKPGSSPQLWIYSTSNLASGVPARFSGSGSGTSYSLTISSMEAEDAATYYCHQYHHSPYIYTFGGGTKLEIK
B14 showed an OD450nm [11] of 0.767 and a Ratio OD(Variant)/OD(WT) [11] of 0.997.

B15: KB001 parental mouse Fab VH variant A103V (Fab, V domains shown)
VH: EVQLKQSGPGLVAPSQSLSITCTVSGFSLSIYSVHWVRQPPGKGLEWLGMIWGGGSSDYNSALKSRLSISKDNSKSQVFLKMNSLQTDDTAMYYCARNGNFYVMDYWGQGTSVTVSS
VL: QIVLTQSPAIMSASLGERVTMTCTASSSVSSSFLHWYQQKPGSSPQLWIYSTSNLASGVPARFSGSGSGTSYSLTISSMEAEDAATYYCHQYHHSPYIYTFGGGTKLEIK
With B15 the OD450nm [11] was 0.849 and 0.807 and the Ratio OD(Variant)/OD(WT) [11] was 0.985 and 0.936.

B16: KB001 parental mouse Fab VH variant Y106D (Fab, V domains shown)
VH: EVQLKQSGPGLVAPSQSLSITCTVSGFSLSIYSVHWVRQPPGKGLEWLGMIWGGGSSDYNSALKSRLSISKDNSKSQVFLKMNSLQTDDTAMYYCARNGNFYAMDDWGQGTSVTVSS
VL: QIVLTQSPAIMSASLGERVTMTCTASSSVSSSFLHWYQQKPGSSPQLWIYSTSNLASGVPARFSGSGSGTSYSLTISSMEAEDAATYYCHQYHHSPYIYTFGGGTKLEIK
Molecule B16 has an OD450nm [11] of 0.675 and a Ratio OD(Variant)/OD(WT) [11] of 0.878.
